From publication PMC3759041

Biological target: GFP-Hace1 (HECT domain and Ankyrin repeat Containing E3 ubiquitin-protein ligase 1) (UniProt Q8IYU2)
Chain of UniProt Q8IYU2 (Q8IYU2 whole entry, the tested form may be a part): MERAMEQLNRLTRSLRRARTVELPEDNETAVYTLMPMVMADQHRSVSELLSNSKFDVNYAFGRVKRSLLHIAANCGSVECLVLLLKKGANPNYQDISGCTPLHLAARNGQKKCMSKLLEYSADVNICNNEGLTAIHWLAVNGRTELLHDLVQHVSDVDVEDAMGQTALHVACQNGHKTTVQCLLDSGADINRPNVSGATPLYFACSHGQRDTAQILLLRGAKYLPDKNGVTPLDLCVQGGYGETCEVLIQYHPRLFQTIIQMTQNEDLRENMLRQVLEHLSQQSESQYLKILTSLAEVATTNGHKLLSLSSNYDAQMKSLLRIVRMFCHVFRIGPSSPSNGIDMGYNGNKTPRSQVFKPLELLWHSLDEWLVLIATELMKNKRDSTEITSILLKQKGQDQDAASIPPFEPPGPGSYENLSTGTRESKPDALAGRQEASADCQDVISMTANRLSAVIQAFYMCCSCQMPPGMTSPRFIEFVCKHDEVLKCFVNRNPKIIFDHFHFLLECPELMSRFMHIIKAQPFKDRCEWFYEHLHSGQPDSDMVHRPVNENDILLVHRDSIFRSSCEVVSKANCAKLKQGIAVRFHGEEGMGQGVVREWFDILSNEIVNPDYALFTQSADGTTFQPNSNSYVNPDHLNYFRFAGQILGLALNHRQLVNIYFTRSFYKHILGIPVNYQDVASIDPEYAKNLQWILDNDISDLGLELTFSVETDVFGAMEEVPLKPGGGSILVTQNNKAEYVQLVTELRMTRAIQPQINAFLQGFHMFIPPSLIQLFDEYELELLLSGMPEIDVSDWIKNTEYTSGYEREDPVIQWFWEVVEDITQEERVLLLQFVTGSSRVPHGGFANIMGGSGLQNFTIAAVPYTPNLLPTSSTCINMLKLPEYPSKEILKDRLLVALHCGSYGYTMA

## Rac1 (from UniProt P63000 1-192) (natural protein; other documents disagree on this pair)
  fraction of the total Rac1 pool bound by Hace1: < 10%
